Here are results for 19 sequences from a protein production outcome set (Wang et al. 2014).

This data set can be described thus: label from the status in PepcDB records.
Turning to “MLEYKKILVPVEGSPKGELALKKAIFVAKRNHAHLDILTVIQSSRFLDVYGHMGSNMDYVEVSLRRAKEYVEDLKDQIKRKYDFEDVEVYVEAGDPKAIIATEMPEKLGTDLIMMGATGLNAFQRAMIGSVADYVTRVALMDVLLVRTELDNLPYSK”, the protein production entry is given as “failed”.

In the case of “MLFDTSPKDNRKDFFDREKEIEKLKGLRAPITLVLGLRRTGKSSIIKIGINELNLPYIYLDLRKFEERNYISYKDFLLELQKEINKLVKRLPSLLKALKNIQGIVIMGNEIKFNWNRKDRLSFANLLESFEQASKDNVIIVLDEAQELVKLRGVNLLPALAYAYDNLKRIKFIMSGSEMGLLYDYLRVEDPESPLFGRAFSTVELKPFSREEAIEFLRRGFQEADIDFKDYEVVYEKIGGIPGWLTYFGFIYLDNKNLDFAINQTLEYAKKLILKEFENFLHGREIARKRYLNIMRTLSKCGKWSDVKRALELEEGIEISDSEIYNYLTQLTKHSWIIKEGEKYCPSEPLISLAFS”, the protein production result was “not failed”.

Take “MLGGIEAGGTKFVCAVGREDGTIIDRIEFPTKMPDETIEKVIQYFSQFSLQAIGIGSFGPVDNDKTSQTYGTITATPKAGWRHYPFLQTVKNEMKIPVGFSTDVNAAALGEFLFGEAKGLDSCLYITIGTGIGAGAIVEGRLLQGLSHPEMGHIYIRRHPDDVYQGKCPYHGDCFEGLASGPAIEARWGKKAADLSDIAQVWELEGYYIAQALAQYILILAPKKIILGGGVMQQKQVFSYIYQYVPKIMNSYLDFSELSDDISDYIVPPRLGSNAGIIGTLVLAHQALQAEAASGEVRS”: the protein production result is reported as “not failed”.

For the sequence “MLGLGVDRLQADINRLLASLFHQGVLDEQFLQLQQLQDETSPNFVYDVINIYFDESEKLLRNLRLLLMDREFSDYKKIGLHLNQLVGSSSSIGARRVRNVCVAFRSASELSNRPGCLRGLEVVEHEYHYLKNMMHELFQWLQLEQQRILAAGVRYPM”, the protein production result is on record as “failed”.

Regarding “MLGNKVVSSPLVAALVALAVRLLAHNFSHHIHLPYHFGITTSKTGSEIWKEAVFWKQQFGVVPAFLTTVGPWFMEYIPPASSDAYVIFLCLCDALTVYIVSRWPSAKPQLTYALFVLNPIMALLPMLESLAPLEHVLLAVILECCRKRRIHPWLIFAARLLAPLLGFHFIAIIVALWYPVGTPCPKIALVGVALCTACIGGCGMLYLRWWGEHVERTSLYSPPDNGVMWYVRLLIMAAFHRSMEVGQIELPAVLTLIFSTGVPCEKEAAAETMKDGGAIPGDRRLLVTLLAICFSKLFCEHVILADYMITVFFLYSLLEVKGRGGFKSMLDRVRGLNIFLPICTLLLGVPLQYAFYTGWVMWDMANPNWVFFPQVAFVTGGGLFLLAFVNSLVDAMKEECVAGITKEKQA”, the protein production result is “failed”. Under “MLGSTDLVLLGKVVATHGIRGQLSVVPFSGEFSTILSMQTVYLSGPDNRKESFEVDRAAVHRNRVLLTLKGFANINEVLHLVGRELFARRDQFPPLDEGEFYWCDLIGLSVTTSEGLSLGRIEEIIATGSNDVYVVRDGEREYLIPALEDIVVGVDLDKGIMTVSPTEGLLDLLEHHHHHH” stands “not failed”; under “MLGTSFNNFGISLSHKRYFSGKVDEIIRCTMGKRIVKISSTKINTSILSSVSEQIGENITDWKNDEKKVYVSRVVNQCIDKFCAEHSRKIGDNLRKQIFKQVEKDYRISLDINAAQSSINHLVSGSSYFKKKMDELCEGMNRSVKNDTTSNVANLISDQFFEKNVQYIDLKKLRGNMSDYITNLESPFLEHHHHHH”, “failed”; under “MLIAILLLLLSIFNIFIGKKVKDKNLAHLLSGFDKEKDDLEYVSSVLGNTFKWIGNLGVIITAIYLILINSISVGLYLICYVGVIILFTVNLTFKTDRHRRSKLKASK”, “failed”.

Regarding “MLIALLLISYQLIKHGYRAADIKNLYTILEGEELRRQKDLSAKLRWGIVDEILWTIIVANGAILFTAHYVLIGLKILDLIAIFVVMLSGVMLYAPLAFLFLYPVVRAFEKNFPPSNPQFLLSHGLICTVSSLIVYEKLEQLWWDPLLVGFFWIAAGFVSFFTNRRFEVLVFLLLIAPLALLSVKCPGAILPILLAKSECSLRIQATFLVKLAVLIFASLAAVALVLQVFGYKSLRELSEKRKAAIKQGKYNPLRDPIIWIAWIMLTSLGLLIASFMERGEISPNML”, the protein production entry is “failed”.

In the case of “MLIATFFFTSHFSRAKQPMWYNGLLDLSVWQVIAVTLAMTHVTIVGVTVYLHRYSAHRSLELNAGLKHFFRFWLWLTTAQNTREWTAIHRKHHAKCETVDDPHSPVVKGLSTVLRKGAELYREEAQNQDTLRIYGKNCPEDWIERNLYSRYKMLGIVLMAVIDLALFGAIGITVWAIQMMWIPFWAAGVVNGLGHAVGYRNFECRDAATNLVPWGIVIGGEELHNNHHTYPNSAKLSVKPWEFDMGWAWIKLFSFLRLAKVQRVAPIAHRVEGKGHIDMDTAMAILNNRFQIMAQYRKLVIAPLVTQELAKADESVRHQFRRAKRLLSRETSLLDDKHHLRIQTMLEHSHALKVIYEKRLALQQIWVKTSSNGHDMLSAMKEWIHEAEASGIQSLREFADQLKTYSLRPVHA”, the protein production entry is listed as “failed”. Under “MLIAVPLDDTNFSENLKKAKEKGADIVELRVDQFSDTSLNYVKEKLEEVHSQGLKTILTIRSPEEGGREVKNREELFEELSPLSDYTDIELSSRGLLVKLYNITKEAGKKLIISYHNFELTPPNWIIREVLREGYRYGGIPKIAVKANSYEDVARLLCISRQVEGEKILISMGDYGKISRLAGYVFGSVITYCSLEKAFAPGQIPLEEMVELRKKFYRL” stands “not failed”. Under “MLICNDKSNPKTLLEEIMALRPWRKGPFEISQIKIDSEWDSSIKWDLVKNATPLKDKVVADVGCNNGYYLFKMLEHGPKSLVGFDPGVLVKKQFEFLAPFFDKEKKIIYESLGVEDLHEKYPNAFDVIFCLGVLYHRKSPLEALKALYHALKIKGELVLDTLIIDSPLDIALCPKKTYAKMKNVYFIPSVSALKGWCERVGFENFEILSVLKTTPKEQRKTDFILGQSLEDFLDKTDPSKTLEGYDAPLRGYFKMLK” stands “failed”.

“MLIDSLHVSFDSFNFESILPMLVLVCGGIFTLLINAFTSRFSRNLNVFLCMLFLVLDFLVVLGLEEQENAFFGFLSLDTLSLISQSIVLISAFLLIFLALSKERFNEFQTAEFYSLYLFIVAGFQFMVSSNHLLLILIGLETASLPLCVLMALSDKRYGLEAGIKYFTMGAMASAFFAMGAMAFYLLTGSLNLEVITLYLHTEGITNPMLFAMGAIFLIGAIGFKVSLVPFHTWMPDVYEGNNPVFASYISIVPKIAGFVVATRLFGAFIDTRTAWVEDIFYVLILMTITIPNFIALWQEDVKRMLAYSSISHSGFALACVFIHTEDSQQAMFVYWFMFAFTYIGAFGLLWLLKSREKTWDERYDHPYSKFNGLIKTHPLVAILGAIFVFGLAGIPPFSVFWGKFLAVESALESNHILLAVVMLVNSAVAAFYYFRWLVAMFFNKPLQSYAQNDIYTQNATMPIYAVIIAMALACLFSVFMMRGLLEFVA”: the protein production entry was “failed”.

As for “MLIEILEFASILALVAVLTLTVMLQDIFFIDINKQYTETRIGTIIFSIRMLFGAWVIFVTETTIIAISKVTAIQLIILLLIWVCSKYVQKTRENWLITIVAFVIYGVGTYIYIQFAFKGY”, the protein production entry is “failed”. On to “MLIGAIVAKDDTWLLWAIIIVWATVSLFLEQRYRWASTISGAIIALVGAMLLSNFKVIPMSAPVYDTVWDYIVPLSIPLLLFSSNILKIWKESRRLLVIFFVASIGTMIGTTVGFMILNQWIPYLNKIGAMMTGSYIGGGVNFAALSSKLETPSEMISSTVVADNSVMALYFMLLIALPSLPLIKKQFKSDYESKSTPESQQAYWEPKKIQLLDIAFSIASAVTLVAVSFKGADLIQQWMPQHNVVLTLIVSFLGDPYLLLTTLTLIVVAVWGDFFESLAGASEIGTFLIYIFFVVIGTPASFATIITTAPLLFIFVIIILVFNLGLSLIFGKIFGFKIEEILLASNATAGGPTTAAALAIGKGWTKVVGPILIIGTLGYVIGNYAGTLMYQLLTYLG”, for which the protein production entry is recorded as “failed”. Under “MLIGEIMDLNLKNFLEDREEIIRDAKRKDEKSFKDFKKIVEEIKERENKDKIVCDFTEYNPLHKGHKYALEKGKEHGIFISVLPGPLERSGRGIPYFLNRYIRAEMAIRAGADIVVEGPPMGIMGSGQYMRCLIKMFYSLGAEIIPRGYIPEKTMEKVIDCINKGYHIQVKPYKIICIETGEILGEKLNIDNYVIASMSQMIYKLNREGLKFNPKFVFVKRLEGISGTKIREAIFSGKFEDIKNMLPKTTLSILKELYDNGKLNELILKRFEDRILETANEYDLYEYLPSNVAEILEKKRPFNNIEEIKNSLPYGFSRHFRERILSKLEARIPNETLSKYINNYPAKIKILAVKL” stands “not failed”. Under “MLIINGKIIPIAHTICAFSAFFAALVTGYSLHFHKIVTNAHYTYPDEWFPSVSATIGDRYPERSIFQILIALTAFPRFLLLLGHYYLNQSKVCFLVGVLRTVSCGGWVYITSTDDHDIHDIFMITYIVLTLPWDIMITRYSSPLTSKNKGLTATIFFGTLFPMIYWYIQHSVQQRAGAYSIYAYFEWSLILLDIAFDAFAYADFKKIDIVLAFNEKPGNTSFFQIRDSSPINYGEEKSSELQKSGEKKVEKEKPVARSATGSYFRFDSFFYLLTNIFNGFLFWSNVTSLLCSIWHFPLWYMGISGYEAAILGYLGPIFLYLPFVSEAFTQYGVLLGGIIAIGAYIVQMPELRLISVAVGTSITVATFVQNLRYITNAETSFSFALTWLLGLVASVILKMGFYTNNPTWVILDERNGGYNKTALVLTVLFGMLSPYVNSINFEGKRNAQAKSASLIGKLFLAVGFGSLLFGIHQLLTDSSTTIYWAWEGYNESHGPLPWPWGALTCTVMLFASLSSVKFMGKPLVPCLLLLISTAVLSARSITQWPKYIFGGLLYAIAMLWLVPSYFSALGQVQNIWVYVLSFSVYIIFVLAHVWVVAYAFVPMGWVLREKIETVLAFSSTFIIIGALTCKNLNIQLVTMGKKFFIYVFFFAVALLSLTARFVYDIRPTGIPQPYHPDSQLITAGIWTIHFGLDNDMWASEDRMINLIKDMELDVVGLLETDTQRITMGNRDLTSKLAHDLNMYADFGPGPNKHTWGCVLLSKFPIVNSTHHLLPSPVGELAPAIHATLQTYNDTLVDVFVFHSGQEEDEEDRRLQSNYMAKLMGNTTRPAILLSYLVVDPGEGNYNTYVSETSGMHDIDPSDDDRWCEYILYRGLRRTGYARVARGTITDTELQVGKFQVLSEQALVEHSDSMYEYGHMSEPEYEDMKFPDKFLGEGERGHFYHVFDEPRYYL” stands “failed”; under “MLIKLRKQKQDENISFFSHFFAVFTGIFFVMTVIIIQVMHFGIYSSVDNSLKIATENVNDYVNMTLSHNNPITEAENGDASFKVKSNGQMAANTDTILYDKKHNVINNVNAFSSLYHIRPKLKDIGDIVEQEAKNIYGQTEKYRTVTVKVNNDFYPQIKFATIVINTTQLEEANTRYVTIIISVMIVFWLISVIASVYLAKWSQKPILENYEKQKSFVENASHELRTPLAVLQNRLESLFRKPEATILDSSESIASSLEEVRNMRMLTANLLNLARRDDGIKPEITEIQPRFFDDTFKNYEMIARENGKKLHIINKVNRQIKTDKTLLKQLMTILFDNAVKYTDNDGEIWLDVKTTDRSLIFSVADNGQGISDEDKKKIFDRFYRVDKARTRQKGGFGLGLSLAKQITDSLKGSIIVKDKKPQGVMFEARLLANK”, “failed”.

In the case of “MLILAIPGYIYYHQQQEQAANQQLGQILPVYEQGNFQQALDGTGDRAGLLAIADDYGGTDAGNLATFYAANALYQRDEYDRALTYYQRFEKEKDFIGASAYAAQAAIQETRGSFERAGGLYEQAASQYQNKLTAPRYLLNAGQAYEEAGQYEAAIGVYERIQEEYPDSEQASNAERYLARAKVHQGSTSSS”, the protein production result is reported as “failed”.
